The results in this text go back to publication PMC8980893, “A fusion of the Bacteroides fragilis ferrous iron import proteins reveals a role for FeoA in stabilizing GTP-bound FeoB” (The Journal of Biological Chemistry, 2022).

The target in one assay is T1, BfNFeoAB (Bacteroides fragilis, UniProt Q5LFM5).
T1 construct: gene BF9343_1287; N-terminal soluble domain of natural FeoAB fusion (FeoA, linker, G-protein and GDI domains), residues 1-438, without transmembrane region; from E. coli C43(DE3) deltaacrB; monomer, about 53 kDa; PDB 7R7B covers FeoA residues 1-74 only
T1 sequence (Q5LFM5 1-438): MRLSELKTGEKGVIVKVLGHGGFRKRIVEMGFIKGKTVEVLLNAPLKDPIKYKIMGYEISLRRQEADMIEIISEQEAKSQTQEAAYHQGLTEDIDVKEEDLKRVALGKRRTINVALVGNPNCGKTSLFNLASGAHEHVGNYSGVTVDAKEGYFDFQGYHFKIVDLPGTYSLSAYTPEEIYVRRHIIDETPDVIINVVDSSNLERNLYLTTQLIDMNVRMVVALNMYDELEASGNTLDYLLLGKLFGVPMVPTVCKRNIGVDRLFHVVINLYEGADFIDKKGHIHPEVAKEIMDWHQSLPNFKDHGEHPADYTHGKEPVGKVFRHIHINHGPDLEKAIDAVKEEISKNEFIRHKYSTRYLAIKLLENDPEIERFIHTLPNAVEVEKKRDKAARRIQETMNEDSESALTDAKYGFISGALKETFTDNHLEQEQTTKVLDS
The assay can be described thus: hydrogen-deuterium exchange mass spectrometry. In kind it is binding. Conditions: 25 mM Tris pD 7.5, 300 mM NaCl, 2% glycerol, 1 mM TCEP, 25 °C.

Assay [1] addresses NFeoB region (G-protein domain and GDI domain) of Bacteroides fragilis FeoAB (Bacteroides fragilis).
For assay [2], the target named is soluble N-terminal domain of Bacteroides fragilis FeoAB (FeoA fused to the N-terminal GTP-binding domain of FeoB) (Bacteroides fragilis). The assay can be described thus: SEC; 120-ml Superdex 200, 4 °C, 25 mM Tris pH 7.5, 300 mM NaCl, 2% glycerol, 1 mM TCEP; after IMAC. On the technique in general: Size exclusion chromatography separates by hydrodynamic size, large species first.

The stoichiometry N is a count of units in the complex or per binding partner.

On to `Nc1nc2c(ncn2[C@@H]2O[C@H](COP(=O)(O)OP(=O)(O)O)[C@@H](O)[C@H]2O)c(=O)[nH]1` [GDP], for which, on BfNFeoAB (5 mM GDP), the “hydrogen-deuterium exchange mass spectrometry” value is “binding of GDP elicits a mixture of protein protection and deprotection”.
For the compound `Nc1nc2c(ncn2[C@@H]2O[C@H](COP(=O)(O)OP(=O)(O)NP(=O)(O)O)[C@@H](O)[C@H]2O)c(=O)[nH]1` [GMP-PNP], the “hydrogen-deuterium exchange mass spectrometry” value at BfNFeoAB (5 mM GMP-PNP, nonhydrolyzable GTP analog) is on record as “Binding of the nonhydrolyzable GTP analog with GMP-PNP elicits increases in protein protection”.
Turning to “FeoA domain of Bacteroides fragilis FeoAB (domain or fragment)”, in assay [1], the kcat of GTP hydrolysis by BfNFeoAB (FeoA present on the chain), 1D-31P NMR, 37 °C came out at 0.00071 s⁻¹ and the kcat of GTP hydrolysis by BfNFeoB-L (FeoA deleted), malachite green assay, 37 °C is 0.037 s⁻¹.
In the case of “soluble N-terminal domain of Bacteroides fragilis FeoAB (FeoA fused to the N-terminal GTP-binding domain of FeoB) (domain or fragment)”, in assay [2], the stoichiometry N stood at 3.
